Like-named read-outs stand apart in the source and are kept apart here.

Assay [1] has as its target T1, GST-Sall1 (full length) (mouse, UniProt Q9ER74 1-1322).
T1 sequence (looked up): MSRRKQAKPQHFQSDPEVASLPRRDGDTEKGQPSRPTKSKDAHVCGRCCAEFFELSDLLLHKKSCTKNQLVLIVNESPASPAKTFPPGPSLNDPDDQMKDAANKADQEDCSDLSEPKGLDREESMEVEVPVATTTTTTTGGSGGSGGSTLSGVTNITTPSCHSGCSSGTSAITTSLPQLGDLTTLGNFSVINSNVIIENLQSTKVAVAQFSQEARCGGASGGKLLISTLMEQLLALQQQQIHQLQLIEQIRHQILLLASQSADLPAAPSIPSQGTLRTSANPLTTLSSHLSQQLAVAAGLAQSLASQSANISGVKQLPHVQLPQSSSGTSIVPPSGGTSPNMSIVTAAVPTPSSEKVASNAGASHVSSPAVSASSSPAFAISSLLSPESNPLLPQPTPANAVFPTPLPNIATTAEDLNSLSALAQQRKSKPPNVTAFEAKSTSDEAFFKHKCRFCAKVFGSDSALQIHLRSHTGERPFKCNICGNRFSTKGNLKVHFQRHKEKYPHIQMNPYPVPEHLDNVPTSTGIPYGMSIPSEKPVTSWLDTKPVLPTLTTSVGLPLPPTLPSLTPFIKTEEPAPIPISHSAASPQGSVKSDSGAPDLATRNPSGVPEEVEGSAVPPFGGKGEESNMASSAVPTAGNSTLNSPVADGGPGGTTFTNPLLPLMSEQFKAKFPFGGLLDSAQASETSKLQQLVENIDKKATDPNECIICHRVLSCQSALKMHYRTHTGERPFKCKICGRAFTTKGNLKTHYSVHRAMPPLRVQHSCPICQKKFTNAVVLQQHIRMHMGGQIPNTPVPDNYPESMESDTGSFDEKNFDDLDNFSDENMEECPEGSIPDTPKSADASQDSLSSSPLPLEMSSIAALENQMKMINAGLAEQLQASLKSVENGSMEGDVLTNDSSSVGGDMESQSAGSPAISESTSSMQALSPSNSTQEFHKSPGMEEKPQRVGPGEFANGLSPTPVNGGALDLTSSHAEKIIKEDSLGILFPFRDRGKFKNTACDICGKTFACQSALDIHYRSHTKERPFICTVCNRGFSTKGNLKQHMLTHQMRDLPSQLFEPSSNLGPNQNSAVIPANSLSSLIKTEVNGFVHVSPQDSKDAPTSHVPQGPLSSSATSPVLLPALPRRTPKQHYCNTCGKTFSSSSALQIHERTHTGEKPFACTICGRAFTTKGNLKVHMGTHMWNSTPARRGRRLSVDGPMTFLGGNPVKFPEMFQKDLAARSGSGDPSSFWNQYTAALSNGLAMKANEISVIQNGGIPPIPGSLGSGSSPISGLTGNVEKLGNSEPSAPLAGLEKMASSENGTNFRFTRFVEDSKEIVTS
Put plainly: pull-down.

Assay [2] has as its target T1, GST-Sall1 (full length). Description: pull-down. The source holds these as a separate data set.

B1: His-Sox2 (full length) (natural protein)
chain: not shown
For B1, the binding result with GST-Sall1 (full length) [1] and with GST-Sall1 (full length) [2] was “binds” throughout.

B2: His-Sox2 aa 1-240 (domain or fragment)
chain: not shown
Take B2: in the assay with GST-Sall1 (full length) [1], the binding result is listed as “binds”.

These data come from paper PMC3020710 (The Journal of Biological Chemistry, 2010).
